B1: KLHL14 (parent)
chain: YVIGGRNETGYLSSVECYNLETNE

Variants of: B1
Assay: protein stability index of a GFP-peptide fusion (GPS, HEK-293T) (PSI 1-6); higher = more stable
Conditions: c terminus: a fixed tail appended
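Further: lentivirally expressed fusions sorted by FACS into six bins by GFP to DsRed ratio, PSI derived from sequencing read proportions per bin multiplied by bin number.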

Variant	protein stability index
YVIGGRNEIGYLSSVECYNLETNE [T9I]	1.49
YVIGGRNEKGYLSSVECYNLETNE [T9K]	2.13
YVIGGRNELGYLSSVECYNLETNE [T9L]	1.69
YVIGGRNEMGYLSSVECYNLETNE [T9M]	2.37
YVIGGRNENGYLSSVECYNLETNE [T9N]	1.83
YVIGGRNEPGYLSSVECYNLETNE [T9P]	1.9
YVIGGRNEQGYLSSVECYNLETNE [T9Q]	2
YVIGGRNERGYLSSVECYNLETNE [T9R]	2.76
YVIGGRNESGYLSSVECYNLETNE [T9S]	1.93
YVIGGRNEVGYLSSVECYNLETNE [T9V]	2.07
YVIGGRNEWGYLSSVECYNLETNE [T9W]	1.78
YVIGGRNEYGYLSSVECYNLETNE [T9Y]	1.58
YVIGGRNETAYLSSVECYNLETNE [G10A]	1.88
YVIGGRNETCYLSSVECYNLETNE [G10C]	2.58
YVIGGRNETDYLSSVECYNLETNE [G10D]	3.07
YVIGGRNETEYLSSVECYNLETNE [G10E]	3.13
YVIGGRNETFYLSSVECYNLETNE [G10F]	2.81
YVIGGRNETHYLSSVECYNLETNE [G10H]	1.45
YVIGGRNETIYLSSVECYNLETNE [G10I]	1.25
YVIGGRNETKYLSSVECYNLETNE [G10K]	2.13
YVIGGRNETLYLSSVECYNLETNE [G10L]	2.62
YVIGGRNETMYLSSVECYNLETNE [G10M]	1.68
YVIGGRNETNYLSSVECYNLETNE [G10N]	1.65
YVIGGRNETPYLSSVECYNLETNE [G10P]	1.52

Variant	protein stability index
YVIGGRNETQYLSSVECYNLETNE [G10Q]	2.29
YVIGGRNETRYLSSVECYNLETNE [G10R]	2.55
YVIGGRNETSYLSSVECYNLETNE [G10S]	1.93
YVIGGRNETTYLSSVECYNLETNE [G10T]	1.6
YVIGGRNETVYLSSVECYNLETNE [G10V]	1.98
YVIGGRNETWYLSSVECYNLETNE [G10W]	2.21
YVIGGRNETYYLSSVECYNLETNE [G10Y]	1.6
YVIGGRNETGALSSVECYNLETNE [Y11A]	2.71
YVIGGRNETGCLSSVECYNLETNE [Y11C]	2.45
YVIGGRNETGDLSSVECYNLETNE [Y11D]	3.65
YVIGGRNETGELSSVECYNLETNE [Y11E]	3.9
YVIGGRNETGFLSSVECYNLETNE [Y11F]	1.83
YVIGGRNETGGLSSVECYNLETNE [Y11G]	2.85
YVIGGRNETGHLSSVECYNLETNE [Y11H]	2.45
YVIGGRNETGILSSVECYNLETNE [Y11I]	2.1
YVIGGRNETGKLSSVECYNLETNE [Y11K]	2.86
YVIGGRNETGLLSSVECYNLETNE [Y11L]	2.2
YVIGGRNETGMLSSVECYNLETNE [Y11M]	1.96
YVIGGRNETGNLSSVECYNLETNE [Y11N]	2.83
YVIGGRNETGPLSSVECYNLETNE [Y11P]	3.71
YVIGGRNETGQLSSVECYNLETNE [Y11Q]	3.1
YVIGGRNETGRLSSVECYNLETNE [Y11R]	2.13
YVIGGRNETGSLSSVECYNLETNE [Y11S]	2.42
YVIGGRNETGTLSSVECYNLETNE [Y11T]	2.75

Variant	protein stability index
YVIGGRNETGVLSSVECYNLETNE [Y11V]	2.52
YVIGGRNETGYASSVECYNLETNE [L12A]	2.62
YVIGGRNETGYCSSVECYNLETNE [L12C]	2.32
YVIGGRNETGYDSSVECYNLETNE [L12D]	3.42
YVIGGRNETGYESSVECYNLETNE [L12E]	3.23
YVIGGRNETGYFSSVECYNLETNE [L12F]	1.8
YVIGGRNETGYGSSVECYNLETNE [L12G]	2.99
YVIGGRNETGYHSSVECYNLETNE [L12H]	1.92
YVIGGRNETGYISSVECYNLETNE [L12I]	2.25
YVIGGRNETGYKSSVECYNLETNE [L12K]	2.16
YVIGGRNETGYMSSVECYNLETNE [L12M]	2.33
YVIGGRNETGYNSSVECYNLETNE [L12N]	2.78
YVIGGRNETGYPSSVECYNLETNE [L12P]	2.64
YVIGGRNETGYQSSVECYNLETNE [L12Q]	2.42
YVIGGRNETGYRSSVECYNLETNE [L12R]	3.28
YVIGGRNETGYSSSVECYNLETNE [L12S]	2.59
YVIGGRNETGYTSSVECYNLETNE [L12T]	2.57
YVIGGRNETGYVSSVECYNLETNE [L12V]	2.21
YVIGGRNETGYWSSVECYNLETNE [L12W]	2.47
YVIGGRNETGYYSSVECYNLETNE [L12Y]	1.8
YVIGGRNETGYLASVECYNLETNE [S13A]	1.65
YVIGGRNETGYLCSVECYNLETNE [S13C]	2.24
YVIGGRNETGYLDSVECYNLETNE [S13D]	2.76
YVIGGRNETGYLESVECYNLETNE [S13E]	2.61

Variant	protein stability index
YVIGGRNETGYLFSVECYNLETNE [S13F]	2.13
YVIGGRNETGYLGSVECYNLETNE [S13G]	1.81
YVIGGRNETGYLHSVECYNLETNE [S13H]	1.58
YVIGGRNETGYLISVECYNLETNE [S13I]	1.84
YVIGGRNETGYLKSVECYNLETNE [S13K]	1.68
YVIGGRNETGYLLSVECYNLETNE [S13L]	2.25
YVIGGRNETGYLMSVECYNLETNE [S13M]	1.91
YVIGGRNETGYLNSVECYNLETNE [S13N]	1.78
YVIGGRNETGYLPSVECYNLETNE [S13P]	2.6
YVIGGRNETGYLQSVECYNLETNE [S13Q]	1.64
YVIGGRNETGYLRSVECYNLETNE [S13R]	2.23
YVIGGRNETGYLTSVECYNLETNE [S13T]	1.79
YVIGGRNETGYLVSVECYNLETNE [S13V]	1.89
YVIGGRNETGYLYSVECYNLETNE [S13Y]	1.79
YVIGGRNETGYLSAVECYNLETNE [S14A]	1.7
YVIGGRNETGYLSCVECYNLETNE [S14C]	2.4
YVIGGRNETGYLSDVECYNLETNE [S14D]	2.38
YVIGGRNETGYLSEVECYNLETNE [S14E]	2.91
YVIGGRNETGYLSFVECYNLETNE [S14F]	1.47
YVIGGRNETGYLSGVECYNLETNE [S14G]	2.31
YVIGGRNETGYLSHVECYNLETNE [S14H]	1.8
YVIGGRNETGYLSIVECYNLETNE [S14I]	2.56

From the supplement of paper PMC10567573
